Patent US20080112961A1 (MacroGenics, published 2008)
One block for each binder: values may come before it.

What was measured:
[1] = biological target: T1, soluble monomeric FcγRIIIA, the extracellular region of FcγRIIIA joined to the linker-AVITAG sequence (UniProt P08637 17-208); assay: BIAcore, Ab on BSA-FITC
T1 construct: extracellular domain; also called FcRIIIA

[2] = biological target: T2, FcγRIIB-Fc fusion protein, soluble dimer: extracellular domain of FcγRIIB fused to the hinge-CH2-CH3 domain … (human, UniProt P31994 43-217, limits assumed); assay: BIAcore, Ab on BSA-FITC
T2 construct: extracellular domain; also called FcRIIB-Fc; 2bfcagl; not shown: human IgG2 hinge-CH2-CH3
T2 sequence (looked up): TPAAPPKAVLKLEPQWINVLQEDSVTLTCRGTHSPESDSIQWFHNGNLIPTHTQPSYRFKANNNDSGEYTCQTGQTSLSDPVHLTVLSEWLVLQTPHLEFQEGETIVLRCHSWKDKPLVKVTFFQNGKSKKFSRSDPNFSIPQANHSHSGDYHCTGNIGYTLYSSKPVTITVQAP
Method: (§1) Following this, the unreacted active esters were “capped off” with an injection of 1M Et-NH2. Once a suitable surface was prepared, ch 4-4-20 antibodies carrying the Fc mutations were passed over the surface by one minute injections of a 20 μg/mL solution at a […] flow rate. […] Next, dilution series of the receptor (FcγRIIIA and FcγRIIB-Fc fusion protein) in HBS-P buffer (10 mM HEPES, 150 mM NaCl, 0.005% Surfactant P20, 3 mM EDTA, pH 7.4) were injected onto the surface at 100 μL/min Antibody regeneration between different receptor dilutions was carried out by single 5 second injections of 100 mM NaHCO₃ pH 9.4; 3M NaCl.
(§2) Binding curves for two different concentrations (200 nM and 800 nM for FcγRIIIA and 200 nM and 400 nM for FcγRIIB fusion protein) were aligned and responses adjusted to the same level of captured antibodies, and the reference curves were subtracted from the experimental curves. Association and dissociation phases were fitted separately. Dissociation rate constant was obtained for interval 32-34 sec of the dissociation phase; association phase fit was obtained by a 1:1 Langmuir model and base fit was selected on the basis Rₘₐₓ and chi² criteria.

[3] = biological target: T2, FcγRIIB-Fc fusion protein, soluble …; assay: ELISA
[4] = biological target: T2, FcγRIIB-Fc fusion protein, soluble …; assay: BIAcore, ch4-4-20
Method: as §1, §2
(§3) Secondary Screen of Mutants via BIAcore: Mutants that were selected in the above screens were then analyzed by BIAcore to determine the kinetic parameters for binding FcγRIIIA (158V) and FcγRIIB. The method used was similar to that disclosed in Section 7.1, supra.

[5] = biological target: T3, FcγRIIB (form not stated) (UniProt P31994 43-217, limits assumed); assay: ELISA
T3 construct: also called FcγRIIB (ELISA)
T3 sequence (looked up): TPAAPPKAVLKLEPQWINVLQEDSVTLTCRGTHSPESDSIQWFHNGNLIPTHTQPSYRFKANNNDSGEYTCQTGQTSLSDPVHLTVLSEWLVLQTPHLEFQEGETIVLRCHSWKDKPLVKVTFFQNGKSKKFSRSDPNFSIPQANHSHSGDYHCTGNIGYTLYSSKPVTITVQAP

[6] = biological target: T4, FcγRIIIA (form not stated) (UniProt P08637 17-208, limits assumed); assay: ELISA
T4 construct: also called FcγRIIIA (ELISA)
T4 sequence (P08637 17-208 F176V limits assumed, form in doubt): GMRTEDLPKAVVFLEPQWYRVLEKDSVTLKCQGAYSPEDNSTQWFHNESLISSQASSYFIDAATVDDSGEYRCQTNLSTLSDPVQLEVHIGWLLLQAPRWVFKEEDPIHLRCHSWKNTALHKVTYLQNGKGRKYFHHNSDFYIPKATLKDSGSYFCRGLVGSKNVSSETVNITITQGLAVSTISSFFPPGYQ

[7] = biological target: T3, FcγRIIB (form not stated); assay: ELISA; remark: listed apart in the source
[8] = biological target: T4, FcγRIIIA (form not stated); assay: ELISA; remark: listed apart in the source
[9] = biological target: T5, FcγRIIIA 158V, soluble monomer (extracellular region joined to linker-AVITAG) (UniProt P08637 17-208, limits assumed); assay: BIAcore, ch4-4-20
T5 construct: extracellular domain; also called 3aV158; 3A 158V
T5 sequence (P08637 17-208 F176V limits assumed): as the sequence (P08637 17-208 F176V limits assumed, form in doubt) above
Method: as §1, §2, §3

- Kd [1]: 70.2 nM
- koff [1]: 0.105 s⁻¹
- kon [1]: 1.43e+06 M⁻¹ s⁻¹
- Kd [2]: 108 nM
- koff [2]: 0.107 s⁻¹
- ELISA, OD [3]: 0.1 OD
B1: ch4-4-20 Mut23 (antibody)
chain 1: not shown
chain 2: DVVMTQTPLSLPVSLGDQASISCRSSQSLVHSNGNTYLRWYLQKPGQSPKVLIYKVSNRFSGVPDRFSGSGSGTDFTLKISRVEAEDLGVYFCSQSTHVPWTFGGGTKLEIKRTVAAPSVFIFPPSDEQLKSGTASVVCLLNNFYPREAKVQWKVDNALQSGNSQESVTEQDSKDSTYSLSSTLTLSKADYEKHKVYACEVTHQGLSSPVTKSFNRGEC

- Koff WT/Mut [4]: 0.62 ratio
B2: ch4-4-20 MgFc66 (A330V, V427M) (antibody)
chain 1: not shown
chain 2: DVVMTQTPLSLPVSLGDQASISCRSSQSLVHSNGNTYLRWYLQKPGQSPKVLIYKVSNRFSGVPDRFSGSGSGTDFTLKISRVEAEDLGVYFCSQSTHVPWTFGGGTKLEIKRTVAAPSVFIFPPSDEQLKSGTASVVCLLNNFYPREAKVQWKVDNALQSGNSQESVTEQDSKDSTYSLSSTLTLSKADYEKHKVYACEVTHQGLSSPVTKSFNRGEC

- Kd [2]: 41.3 nM
- koff [2]: 0.05 s⁻¹
- ELISA, OD [3]: 1.2 OD
B8: ch4-4-20 Mut 10 (P396L, A330S, K288N) (antibody)
heavy: ASTKGPSVFPLAPSSKSTSGGTAALGCLVKDYFPEPVTVSWNSGALTSGVHTFPAVLQSSGLYSLSSVVTVPSSSLGTQTYICNVNHKPSNTKVDKKVEPKSCDKTHTCPPCPAPELLGGPSVFLFPPKPKDTLMISRTPEVTCVVVDVSHEDPEVKFNWYVDGVEVHNANTKPREEQYNSTYRVVSVLTVLHQDWLNGKEYKCKVSNKALPSPIEKTISKAKGQPREPQVYTLPPSRDELTKNQVSLTCLVKGFYPSDIAVEWESNGQPENNYKTTPLVLDSDGSFFLYSKLTVDKSRWQQGNVFSCSVMHEALHNHYTQKSLSLSPGK
notes: also called Mut10(0225); K288N, A330S, P396L

The remaining lines, values behind:

B3: ch4-4-20 G316D, A378V, D399E (antibody)
heavy: ASTKGPSVFPLAPSSKSTSGGTAALGCLVKDYFPEPVTVSWNSGALTSGVHTFPAVLQSSGLYSLSSVVTVPSSSLGTQTYICNVNHKPSNTKVDKKVEPKSCDKTHTCPPCPAPELLGGPSVFLFPPKPKDTLMISRTPEVTCVVVDVSHEDPEVKFNWYVDGVEVHNAKTKPREEQYNSTYRVVSVLTVLHQDWLNDKEYKCKVSNKALPAPIEKTISKAKGQPREPQVYTLPPSRDELTKNQVSLTCLVKGFYPSDIVVEWESNGQPENNYKTTPPVLESDGSFFLYSKLTVDKSRWQQGNVFSCSVMHEALHNHYTQKSLSLSPGK
- ELISA binding, fold vs Wt [5]: 14 X
- ELISA binding, fold vs Wt [6]: 1.5 X
- fold increase vs WT [7]: 14 x
- fold increase vs WT [8]: 1.5 x

B4: ch4-4-20 K334E, T359N, T366S (antibody)
heavy: ASTKGPSVFPLAPSSKSTSGGTAALGCLVKDYFPEPVTVSWNSGALTSGVHTFPAVLQSSGLYSLSSVVTVPSSSLGTQTYICNVNHKPSNTKVDKKVEPKSCDKTHTCPPCPAPELLGGPSVFLFPPKPKDTLMISRTPEVTCVVVDVSHEDPEVKFNWYVDGVEVHNAKTKPREEQYNSTYRVVSVLTVLHQDWLNGKEYKCKVSNKALPAPIEETISKAKGQPREPQVYTLPPSRDELNKNQVSLSCLVKGFYPSDIAVEWESNGQPENNYKTTPPVLDSDGSFFLYSKLTVDKSRWQQGNVFSCSVMHEALHNHYTQKSLSLSPGK
- ELISA binding, fold vs Wt [6]: 1.5 X
- binding result [7]: binds
- fold increase vs WT [8]: 1.5 x

B5: ch4-4-20 MgFc43 (Y319F, P352L, P396L) (antibody)
heavy: ASTKGPSVFPLAPSSKSTSGGTAALGCLVKDYFPEPVTVSWNSGALTSGVHTFPAVLQSSGLYSLSSVVTVPSSSLGTQTYICNVNHKPSNTKVDKKVEPKSCDKTHTCPPCPAPELLGGPSVFLFPPKPKDTLMISRTPEVTCVVVDVSHEDPEVKFNWYVDGVEVHNAKTKPREEQYNSTYRVVSVLTVLHQDWLNGKEFKCKVSNKALPAPIEKTISKAKGQPREPQVYTLLPSRDELTKNQVSLTCLVKGFYPSDIAVEWESNGQPENNYKTTPLVLDSDGSFFLYSKLTVDKSRWQQGNVFSCSVMHEALHNHYTQKSLSLSPGK
- Koff WT/Mut [4]: 2.29 ratio
- Koff WT/Mut [9]: 1.23 ratio

B6: ch4-4-20 MgFc63 (S298N, K360R, N361D) (antibody)
heavy: ASTKGPSVFPLAPSSKSTSGGTAALGCLVKDYFPEPVTVSWNSGALTSGVHTFPAVLQSSGLYSLSSVVTVPSSSLGTQTYICNVNHKPSNTKVDKKVEPKSCDKTHTCPPCPAPELLGGPSVFLFPPKPKDTLMISRTPEVTCVVVDVSHEDPEVKFNWYVDGVEVHNAKTKPREEQYNNTYRVVSVLTVLHQDWLNGKEYKCKVSNKALPAPIEKTISKAKGQPREPQVYTLPPSRDELTRDQVSLTCLVKGFYPSDIAVEWESNGQPENNYKTTPPVLDSDGSFFLYSKLTVDKSRWQQGNVFSCSVMHEALHNHYTQKSLSLSPGK
- Koff WT/Mut [4]: 0.67 ratio

B7: ch4-4-20 MgFc39 (E293V, Q295E, A327T) (antibody)
heavy: ASTKGPSVFPLAPSSKSTSGGTAALGCLVKDYFPEPVTVSWNSGALTSGVHTFPAVLQSSGLYSLSSVVTVPSSSLGTQTYICNVNHKPSNTKVDKKVEPKSCDKTHTCPPCPAPELLGGPSVFLFPPKPKDTLMISRTPEVTCVVVDVSHEDPEVKFNWYVDGVEVHNAKTKPRVEEYNSTYRVVSVLTVLHQDWLNGKEYKCKVSNKTLPAPIEKTISKAKGQPREPQVYTLPPSRDELTKNQVSLTCLVKGFYPSDIAVEWESNGQPENNYKTTPPVLDSDGSFFLYSKLTVDKSRWQQGNVFSCSVMHEALHNHYTQKSLSLSPGK
- ELISA binding, fold vs Wt [6]: 1.4 X
- Koff WT/Mut [4]: 1.3 ratio
- Koff WT/Mut [9]: 0.86 ratio
- fold increase vs WT [8]: 0.4 x
